By stoichiometry N is commonly meant a count of units in the complex or per binding partner.

The source of these data is PMC5597967, “14-3-3 Regulates Actin Filament Formation in the Deep-Branching Eukaryote Giardia lamblia” (mSphere, 2017).

This series concerns the molecule itself. As to the kind of experiment: native gel or EMSA; TS-actin and associated proteins purified on StrepTactin resin, eluted with 2 mM biotin, run at once on 4 to 16% native PAGE and blotted; with and without DSP cross-linking of cells before lysis; input also run.

B1: Gl-14-3-3–HA (endogenously 3×HA C-terminally tagged Gl-14-3-3) (natural protein, Giardia lamblia, UniProt E2RU97 1-248, looked up)
chain: MAEAFTREDYVFMAQLNENAERYDEMVETMRKISGMEGELSDKERNLLSVAYKNVIGPRRAAWRIVSSIEAKEKGRQKPNAKRIEQIRVYRQKIEKELSDICNDILKLLQEQFVPRSTNADAKVFYYKMQGDYYRYLAEYSSGEDKEKIAGSALNAYNSAFEISQQLPPTHPIRLGLALNFSVFYYEILASPDRACELARKAFDAAITDLDKLTEESYKDSTLIMQLLRDNLNLWVTDSAGDDNAEEK
notes: Giardia lamblia 14-3-3 (Gl-14-3-3), the single 14-3-3 homolog, GL50803_6430; source: Giardia trophozoites, endogenously tagged (integrated copy), in lysate; not shown: 3xHA, C-terminal, kept
Turning to B1, the “stoichiometry N” value came out at 2.
